Entries after “also recorded” stand apart in the source; their conditions may differ. Read-outs that look alike come from different tables or passages of the source.
Columns and labels:
[1] = biological target: the molecule itself; assay: non-reducing SDS-PAGE of COS cell extracts (homodimer)
Text: We first determined why the asparagine to glutamine mutations that blocked glycosylation reduced CPG2s enzyme activity. […] We next tested each position independently.

[2] = CPG2 dimer stability by non-reducing SDS-polyacrylamide gel electrophoresis of COS cell extracts; conditions: sample not heated
Text: To test this, CPG2* was transiently expressed in COS cells and the stability of the dimers determined by non-reducing SDS-polyacrylamide gels.

[3] = Enzyme kinetic studies of CPG2-derived enzymes in detergent soluble cell extracts, MTX as substrate; format: biochemical; conditions: for Catalytic activity (%): specific activity of COS/CPG2* (50 ng CPG2*) assigned as 100%
Text: Detergent soluble cell extracts, and enzyme kinetic analyses have been described previously (Marais et al (1996) Cancer Res. 56, 4735-4742; Marais et al (1997) Nature Biotech. 15, 1373-1377).

[4] = substrate MTX, detergent soluble cell extract, read-out: Km (μM MTX)

Molecule	dimer stability [2]	Catalytic activity (%) [3]	Km [3, 4]	also measured
CPG2*(N222L) (enzyme, Cytosolic form expressed in COS cells) ALAQKRDNVLFQAATDEQPAVIKTLEKLVNIETGTGDAEGIAAAGNFLEAELKNLGFTVTRSKSAGLVVGDNIVGKIKGRGGKNLLLMSHMDTVYLKGILAKAPFRVEGDKAYGPGIADDKGGNAVILHTLKLLKEYGVRDYGTITVLFNTDEEKGSFGSRDLIQEEAKLADYVLSFEPTSAGDEKLSLGTSGIAYVQVLITGKASHAGAAPELGVNALVEASDLVLRTMNIDDKAKNLRFNWTIAKAGNVSNIIPASATLNADVRYARNEDFDAAMKTLEERAQQKKLPEADVKVIVTRGRPAFNAGEGGKKLVDKAVAYYKEAGGTLGVEERTGGGTDAAYAALSGKPVIESLGLPGFGYHSDKAEYVDISAIPRRLYMAARLIMDLGAGK	formed stable dimers	–	–	binding result [1]: binds
CPG2*(QTQ): cytosolic CPG2*(Q)3 with the glutamine at position 264 substituted with threonine (protein) ALAQKRDNVLFQAATDEQPAVIKTLEKLVNIETGTGDAEGIAAAGNFLEAELKNLGFTVTRSKSAGLVVGDNIVGKIKGRGGKNLLLMSHMDTVYLKGILAKAPFRVEGDKAYGPGIADDKGGNAVILHTLKLLKEYGVRDYGTITVLFNTDEEKGSFGSRDLIQEEAKLADYVLSFEPTSAGDEKLSLGTSGIAYVQVQITGKASHAGAAPELGVNALVEASDLVLRTMNIDDKAKNLRFTWTIAKAGQVSNIIPASATLNADVRYARNEDFDAAMKTLEERAQQKKLPEADVKVIVTRGRPAFNAGEGGKKLVDKAVAYYKEAGGTLGVEERTGGGTDAAYAALSGKPVIESLGLPGFGYHSDKAEYVDISAIPRRLYMAARLIMDLGAGK	did not restore dimer stability; also recorded: not improved	78%	125 µM	catalytic activity compared to CPG2*(Q)3 ([3]; increase relative to CPG2*(Q)3): ~2.5 fold; increase in Km (decrease in apparent affinity for MTX) compared to CPG2*(Q)3 ([3]; relative to CPG2*(Q)3): ~12 fold
CPG2*(QAQ): cytosolic CPG2*(Q)3 with the glutamine at position 264 substituted with alanine (protein) ALAQKRDNVLFQAATDEQPAVIKTLEKLVNIETGTGDAEGIAAAGNFLEAELKNLGFTVTRSKSAGLVVGDNIVGKIKGRGGKNLLLMSHMDTVYLKGILAKAPFRVEGDKAYGPGIADDKGGNAVILHTLKLLKEYGVRDYGTITVLFNTDEEKGSFGSRDLIQEEAKLADYVLSFEPTSAGDEKLSLGTSGIAYVQVQITGKASHAGAAPELGVNALVEASDLVLRTMNIDDKAKNLRFAWTIAKAGQVSNIIPASATLNADVRYARNEDFDAAMKTLEERAQQKKLPEADVKVIVTRGRPAFNAGEGGKKLVDKAVAYYKEAGGTLGVEERTGGGTDAAYAALSGKPVIESLGLPGFGYHSDKAEYVDISAIPRRLYMAARLIMDLGAGK	did not restore dimer stability; also recorded: not improved	essentially inactive	–	Catalytic activity (%) ([3]; listed as COS/CPG2* (QAQ)): Very low
CPG2*(Q)3: cytosolic CPG2* bearing three asparagine to glutamine mutations (N222, N264, N272) (protein) ALAQKRDNVLFQAATDEQPAVIKTLEKLVNIETGTGDAEGIAAAGNFLEAELKNLGFTVTRSKSAGLVVGDNIVGKIKGRGGKNLLLMSHMDTVYLKGILAKAPFRVEGDKAYGPGIADDKGGNAVILHTLKLLKEYGVRDYGTITVLFNTDEEKGSFGSRDLIQEEAKLADYVLSFEPTSAGDEKLSLGTSGIAYVQVQITGKASHAGAAPELGVNALVEASDLVLRTMNIDDKAKNLRFQWTIAKAGQVSNIIPASATLNADVRYARNEDFDAAMKTLEERAQQKKLPEADVKVIVTRGRPAFNAGEGGKKLVDKAVAYYKEAGGTLGVEERTGGGTDAAYAALSGKPVIESLGLPGFGYHSDKAEYVDISAIPRRLYMAARLIMDLGAGK	unstable	–	–	–
CPG2*(N272): cytosolic CPG2* with N to L substitution at position 272 (protein) ALAQKRDNVLFQAATDEQPAVIKTLEKLVNIETGTGDAEGIAAAGNFLEAELKNLGFTVTRSKSAGLVVGDNIVGKIKGRGGKNLLLMSHMDTVYLKGILAKAPFRVEGDKAYGPGIADDKGGNAVILHTLKLLKEYGVRDYGTITVLFNTDEEKGSFGSRDLIQEEAKLADYVLSFEPTSAGDEKLSLGTSGIAYVQVNITGKASHAGAAPELGVNALVEASDLVLRTMNIDDKAKNLRFNWTIAKAGLVSNIIPASATLNADVRYARNEDFDAAMKTLEERAQQKKLPEADVKVIVTRGRPAFNAGEGGKKLVDKAVAYYKEAGGTLGVEERTGGGTDAAYAALSGKPVIESLGLPGFGYHSDKAEYVDISAIPRRLYMAARLIMDLGAGK	formed stable dimers	–	–	–
CPG2*(N264L): cytosolic CPG2* with N to L substitution at position 264 (protein) ALAQKRDNVLFQAATDEQPAVIKTLEKLVNIETGTGDAEGIAAAGNFLEAELKNLGFTVTRSKSAGLVVGDNIVGKIKGRGGKNLLLMSHMDTVYLKGILAKAPFRVEGDKAYGPGIADDKGGNAVILHTLKLLKEYGVRDYGTITVLFNTDEEKGSFGSRDLIQEEAKLADYVLSFEPTSAGDEKLSLGTSGIAYVQVNITGKASHAGAAPELGVNALVEASDLVLRTMNIDDKAKNLRFLWTIAKAGNVSNIIPASATLNADVRYARNEDFDAAMKTLEERAQQKKLPEADVKVIVTRGRPAFNAGEGGKKLVDKAVAYYKEAGGTLGVEERTGGGTDAAYAALSGKPVIESLGLPGFGYHSDKAEYVDISAIPRRLYMAARLIMDLGAGK	migrated as a monomer	–	–	–
stCPG2(QTQ): surface tethered CPG2, Q222, T264, Q272 (protein) ALAQKRDNVLFQAATDEQPAVIKTLEKLVNIETGTGDAEGIAAAGNFLEAELKNLGFTVTRSKSAGLVVGDNIVGKIKGRGGKNLLLMSHMDTVYLKGILAKAPFRVEGDKAYGPGIADDKGGNAVILHTLKLLKEYGVRDYGTITVLFNTDEEKGSFGSRDLIQEEAKLADYVLSFEPTSAGDEKLSLGTSGIAYVQVQITGKASHAGAAPELGVNALVEASDLVLRTMNIDDKAKNLRFTWTIAKAGQVSNIIPASATLNADVRYARNEDFDAAMKTLEERAQQKKLPEADVKVIVTRGRPAFNAGEGGKKLVDKAVAYYKEAGGTLGVEERTGGGTDAAYAALSGKPVIESLGLPGFGYHSDKAEYVDISAIPRRLYMAARLIMDLGAGKDLDDKGCPAEQRASPLTSIISAVVGILLVVVLGVVFGILIKRRQQKIRKYT	did nor form stable dimers	29%	45 µM	–
stCPG2(QAQ): surface tethered CPG2, Q222, A264, Q272 (protein) ALAQKRDNVLFQAATDEQPAVIKTLEKLVNIETGTGDAEGIAAAGNFLEAELKNLGFTVTRSKSAGLVVGDNIVGKIKGRGGKNLLLMSHMDTVYLKGILAKAPFRVEGDKAYGPGIADDKGGNAVILHTLKLLKEYGVRDYGTITVLFNTDEEKGSFGSRDLIQEEAKLADYVLSFEPTSAGDEKLSLGTSGIAYVQVQITGKASHAGAAPELGVNALVEASDLVLRTMNIDDKAKNLRFAWTIAKAGQVSNIIPASATLNADVRYARNEDFDAAMKTLEERAQQKKLPEADVKVIVTRGRPAFNAGEGGKKLVDKAVAYYKEAGGTLGVEERTGGGTDAAYAALSGKPVIESLGLPGFGYHSDKAEYVDISAIPRRLYMAARLIMDLGAGKDLDDKGCPAEQRASPLTSIISAVVGILLVVVLGVVFGILIKRRQQKIRKYT	did nor form stable dimers	38%	69 µM	–
stCPG2(QSQ): surface tethered CPG2, Q222, S264, Q272 (protein) ALAQKRDNVLFQAATDEQPAVIKTLEKLVNIETGTGDAEGIAAAGNFLEAELKNLGFTVTRSKSAGLVVGDNIVGKIKGRGGKNLLLMSHMDTVYLKGILAKAPFRVEGDKAYGPGIADDKGGNAVILHTLKLLKEYGVRDYGTITVLFNTDEEKGSFGSRDLIQEEAKLADYVLSFEPTSAGDEKLSLGTSGIAYVQVQITGKASHAGAAPELGVNALVEASDLVLRTMNIDDKAKNLRFSWTIAKAGQVSNIIPASATLNADVRYARNEDFDAAMKTLEERAQQKKLPEADVKVIVTRGRPAFNAGEGGKKLVDKAVAYYKEAGGTLGVEERTGGGTDAAYAALSGKPVIESLGLPGFGYHSDKAEYVDISAIPRRLYMAARLIMDLGAGKDLDDKGCPAEQRASPLTSIISAVVGILLVVVLGVVFGILIKRRQQKIRKYT	weak dimers	40%	51 µM	–
COS/stCPG2 (Q, NWV, Q): CPG2 with T266 altered to V266 in the context of Q222 and Q272 (protein, UniProt P06621 23-415, looked up, variant N222Q T266V N272Q, surface tethered, CPG2 with T266 altered to V266 in the context of Q222 and Q272) Carboxypeptidase G2: ALAQKRDNVLFQAATDEQPAVIKTLEKLVNIETGTGDAEGIAAAGNFLEAELKNLGFTVTRSKSAGLVVGDNIVGKIKGRGGKNLLLMSHMDTVYLKGILAKAPFRVEGDKAYGPGIADDKGGNAVILHTLKLLKEYGVRDYGTITVLFNTDEEKGSFGSRDLIQEEAKLADYVLSFEPTSAGDEKLSLGTSGIAYVQVQITGKASHAGAAPELGVNALVEASDLVLRTMNIDDKAKNLRFNWVIAKAGQVSNIIPASATLNADVRYARNEDFDAAMKTLEERAQQKKLPEADVKVIVTRGRPAFNAGEGGKKLVDKAVAYYKEAGGTLGVEERTGGGTDAAYAALSGKPVIESLGLPGFGYHSDKAEYVDISAIPRRLYMAARLIMDLGAGK	–	55%	90 µM	Km ([3]; unit μm [sic], read-out: Km): 90 µM
